Common to all, as to conditions: Homo sapiens; 25 uM
Substrate in data set [1]: C[C@H]1COC2=C1C(=O)C(=O)c1c2ccc2c1CCCC2(C)C
Substrate in data set [2]: C[C@H]1COC2=C1C(=O)C(=O)c1c2ccc2c1CCCC2(C)C
This is another data set of the same source.

Substrate in data set [3]: C[C@H]1COC2=C1C(=O)C(=O)c1c2ccc2c1CCCC2(C)C
This is another data set of the same source.

Substrate in data set [4]: C[C@H]1COC2=C1C(=O)C(=O)c1c2ccc2c1CCCC2(C)C
The source holds these as a separate data set.

These results are taken from ChEMBL document CHEMBL2429837, “Identification of cryptotanshinone as an inhibitor of oncogenic protein tyrosine phosphatase SHP2 (PTPN11)” (J Med Chem, 2013).

B1: Tyrosine-protein phosphatase non-receptor type 11 (Homo sapiens), Q06124 (protein)
chain: MTSRRWFHPNITGVEAENLLLTRGVDGSFLARPSKSNPGDFTLSVRRNGAVTHIKIQNTGDYYDLYGGEKFATLAELVQYYMEHHGQLKEKNGDVIELKYPLNCADPTSERWFHGHLSGKEAEKLLTEKGKHGSFLVRESQSHPGDFVLSVRTGDDKGESNDGKSKVTHVMIRCQELKYDVGGGERFDSLTDLVEHYKKNPMVETLGTVLQLKQPLNTTRINAAEIESRVRELSKLAETTDKVKQGFWEEFETLQQQECKLLYSRKEGQRQENKNKNRYKNILPFDHTRVVLHDGDPNEPVSDYINANIIMPEFETKCNNSKPKKSYIATQGCLQNTVNDFWRMVFQENSRVIVMTTKEVERGKSKCVKYWPDEYALKEYGVMRVRNVKESAAHDYTLRELKLSKVGQGNTERTVWQYHFRTWPDHGVPSDPGGVLDFLEEVHHKQESIMDAGPVVVHCSAGIGRTGTFIVIDILIDIIREKGVDCDIDVPKTIQMVRSQRSGMVQTEAQYRFIYMAVQHYIETLQRRIEEEQKSKRKGHEYTNIKYSLADQTSGDQSPLPPCTPTPPCAEMREDSARVYENVGLMQQQKSFR
Regarding B1, the Km (in general, the concentration of substrate that gives half-maximal velocity) in data set [1] came out at 170 µM. Moreover, the kcat/Km (usually the turnover number divided by the Michaelis constant) in data set [2] was found to be 2150 M⁻¹ s⁻¹. Besides, in data set [3], the kcat – broadly, the number of substrate molecules converted per active site and unit of time at saturation – came to 0.36 s⁻¹. Besides, the Vmax (as a rule, the top rate of the reaction or transport when substrate is in excess) in data set [4] turned out to be 6.96 µM/min.
